In US20050112698A1 (Bayer, published 2005):

How the values were obtained:
human Stem Cell Factor [1] = molecular target: T1, human Stem Cell Factor (human, UniProt P21583 26-189); experiment: BIAcore, Affinity Estimation, Fab
T1 construct: Human SCF was bought from R&D Systems and is called soluble in the BIAcore assay; also called SCF; hSCF

Cynomolgus Monkey SCF [2] = molecular target: T2, Cynomolgus Monkey SCF (cynomolgus monkey, UniProt A0A7N9CAX5 26-189); experiment: cell-based or functional assay
Cynomolgus Monkey SCF [3] = molecular target: T2, Cynomolgus Monkey SCF; experiment: SPR BIAcore, 5000 RU immobilized cSCF, off-rate ranking
Experimental: (§1) TABLE 12 Sequences of the CDR3 Vk1 Region of Selected Antibody Clones with Comparison of koff and SCF Inhibitory Activity The off-rates were determined using a high density surface CM5 chip (5000 RU of immobilized cSCF) on BIAcore and are shown with comparison to the original A2-G8 clone. […] The IC₅₀ in the TF-1 proliferation assay was based on an average of two assays with the exception of the A2-G8-IgG (n = 5).
Analysis of Fab binding to cSCF was performed by surface plasmon resonance using a BIAcore 2000 (Biacore, Piscataway, N.J.), according to the manufacturer's instructions and a CM5 chip (Biacore) coated with cSCF. For amine coupling, a research grade CM5 chip was activated using the standard NHS/EDC procedure. Cynomologus monkey SCF was diluted to 20 μg/ml in 10 mM NaAcetate, pH 5.0, and a total of 5000 RU's were coupled to channel 2 of the sensor surface. The remaining active sites were quenched by the addition of 1M ethanolamine, pH 8.0. Channel 1 was subjected to the coupling procedure in the absence of protein and was used as a reference surface. Extracts were diluted 1/5 in HBS-EP running buffer and injected for 2 min using a flow rate of 20 μl/min. The surface was regenerated by two consecutive injections of 25 μl, 10 mM glycine, pH 2.5, using a flow rate of 100 μl/min. The koff was calculated from a single concentration of Fab using BIAevaluation software (Biacore).

Cynomolgus Monkey SCF [4] = molecular target: T2, Cynomolgus Monkey SCF; experiment: competition ELISA: cSCF binding to coated human SCFR, Fab 3.1 µg/ml
Experimental: The extracts containing Fab were also tested for the ability to inhibit SCF binding to the SCF receptor. ELISA plates were coated overnight with 2 μg/ml human SCFR (R&D Systems, Minneapolis, Minn.) in PBS at 4° C. After washing with TBS-T, the plate was blocked with 5 mg/ml BSA in PBS. The extract was diluted 1/5 in PBS buffer containing 12.5 ng/ml cSCF and 1 mg/ml BSA. After a 1 hr incubation at room temperature, 100 μl was added to the blocked ELISA plate and incubated an additional hour. The plate was washed 5 times with TBS-T, and 100 μl of a 0.4 μg/ml solution of anti-SCF (R&D Systems) in 1 mg/ml BSA in PBS was added. After 1 hour the plate was washed and incubated with anti-Mouse-HRP (Sigma, St. Louis, Mo.). The plate was developed with BM Blue POD substrate (Roche Diagnostics, Chicago, Ill.) and read at 370 nm.
as §1

human Stem Cell Factor [5] = molecular target: T1, human Stem Cell Factor; experiment: cell-based or functional assay
human Stem Cell Factor [6] = molecular target: T1, human Stem Cell Factor; experiment: cell-based or functional assay; remark: listed apart in the source
human Stem Cell Factor [7] = molecular target: T1, human Stem Cell Factor; experiment: SPR BIAcore 2000, Fab over 150 RU immobilized hSCF
Experimental: (§2) Affinity measurements were carried out on a BIAcore 2000 (Biacore) at 25° C. […] Purified Fab's were diluted in HBS-EP running buffer at concentrations ranging from 1.95 to 125 nM. A volume of 100 μl was injected using a flow rate of 50 μl/min in Kinject mode. After a 10 min dissociation, 50 μl of 10 mM Glycine, pH 2.5 and 25 μl of 10 mM Glycine, pH 2.0 was injected using a flow rate of 100 μl/min. All samples were run in duplicate. […] Cynomologus monkey SCF was diluted in HBS-EP running buffer at concentrations ranging from 15.6 to 500 nM and 150 μl injected at a flow rate of 50 μl/min. After a 15 min dissociation, 50 μl of 10 mM Glycine, pH 2.5, and 25 μl of 10 mM Glycine, pH 1.5 was injected using a flow rate of 100 μl/min. All samples were run in duplicate. The data was globally fit to the 1 to 1 binding model using BIAevaluation software. The raw experimental data were corrected for instrumental and bulk solvent artifacts by double referencing using both activated and blocked surfaces as controls.
(§3) To evaluate the binding properties of anti-SCF Fabs selected from affinity optimization of the CDR3 loop with SCF, the real time interaction was measured using surface plasmon resonance with the BIAcore 2000. […] The improvement in Kd's are primarily governed by a substantial reduction in the off-rate (koff). […] The affinity constants for Fab binding to human SCF were slightly lower than those Kd's for cynomologus monkey SCF. The panning design, with lower antigen concentrations and extensive washing steps, favors off-rate selection. The affinity of the A2-G8 clone in an IgG vector was measured using the IgG immobilized to the surface of the CM5 chip.

Cynomolgus Monkey SCF [8] = molecular target: T2, Cynomolgus Monkey SCF; experiment: SPR BIAcore 2000, Fab over 185 RU immobilized cSCF
Experimental: as §2, §3

T1 sequence (P21583 other isoform, or with tags, fused parts or gaps limits assumed): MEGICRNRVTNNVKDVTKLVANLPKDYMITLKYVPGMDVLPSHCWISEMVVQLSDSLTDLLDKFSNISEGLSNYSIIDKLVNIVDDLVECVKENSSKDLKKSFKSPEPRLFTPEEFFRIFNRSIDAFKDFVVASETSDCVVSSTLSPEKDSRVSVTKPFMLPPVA

| Kd (human Stem Cell Factor [1]) [nM] | IC50 TF-1 cynoSCF Assay (Cynomolgus Monkey SCF [2]) [µg/mL] | koff (Cynomolgus Monkey SCF [3]) [s⁻¹] | % Inhibition SCF Binding ELISA Assay (Cynomolgus Monkey SCF [4]) [%] | TF-1 proliferation IC50, fold lower than the A2-G8 Mab (human Stem Cell Factor [5]) [fold] | IC50 TF-1 huSCF Assay (human Stem Cell Factor [6]) [µg/mL] | Kd (human Stem Cell Factor [7]) [nM] | koff (human Stem Cell Factor [7]) [s⁻¹] | kon (human Stem Cell Factor [7]) [M⁻¹ s⁻¹] | Kd (Cynomolgus Monkey SCF [8]) [nM] | koff (Cynomolgus Monkey SCF [8]) [s⁻¹] | kon (Cynomolgus Monkey SCF [8]) [M⁻¹ s⁻¹] | Binder |
| --- | --- | --- | --- | --- | --- | --- | --- | --- | --- | --- | --- | --- |
| 18 |  |  |  |  |  |  |  |  |  |  |  | Fab A2-D12 (Fab, V domains shown) VH: not shown VL: DIQMTQSPSSLSASVGDRVTITCRASQGIWLYLSWYQQKPGKAPKLLIYAASSLQSGVPSRFSGSGSGTDFTLTISSLQPEDFATYYCQQYSGMPYTFGQGTKVEIK |
|  | 4.64 | 0.00075 | 70 |  |  |  |  |  |  |  |  | Fab A8 (light chain CDR3 variant of A2-G8) (Fab, V domains shown, It carries FLAG and Strep tags) VH: not shown VL: QMTQSPSSLSASVGDRVTITCRASQGIRGYLGWYQQKPGKAPKLLIYSASSLQSGVPSRFSGSGSGTDFTLTISSLQPEDFATYYCCSAGFMPYTFGQGTKVEIKR |
|  | 1.65 | 0.00044 | 68 | ≥ 6 | 0.38 | 1.8 | 0.00046 | 250000 | 5.5 | 0.00087 | 160000 | Fab A12 (Fab, V domains shown, Light chain CDR3 variant of Fab A2-G8; It carries FLAG and Strep tags) VH: not shown VL: QMTQSPSSLSASVGDRVTITCRASQGIRGYLGWYQQKPGKAPKLLIYSASSLQSGVPSRFSGSGSGTDFTLTISSLQPEDFATYYCGEWAYMPYTFGQGTKVEIKR |
|  | 2.07 | 0.00041 | 65 | ≥ 6 | 0.14 | 1.6 | 0.0005 | 320000 | 4.9 | 0.00104 | 210000 | Fab B1 (Fab, V domains shown, It carries FLAG and Strep tags) VH: not shown VL: QMTQSPSSLSASVGDRVTITCRASQGIRGYLGWYQQKPGKAPKLLIYSASSLQSGVPSRFSGSGSGTDFTLTISSLQPEDFATYYCAEYIRMPYTFGQGTKVEIKR |
|  | 5.45 | 0.00048 | 70 |  | 2.01 | 1.7 | 0.0005 | 300000 | 4.3 | 0.00079 | 190000 | Fab B9 (Fab, V domains shown, It carries FLAG and Strep tags; also called B9L) VH: not shown VL: QMTQSPSSLSASVGDRVTITCRASQGIRGYLGWYQQKPGKAPKLLIYSASSLQSGVPSRFSGSGSGTDFTLTISSLQPEDFATYYCAGTGFMPYTFGQGTKVEIKR |
|  | 0.48 | 0.00027 | 75 | ≥ 6 | 0.09 | 0.8 | 0.00024 | 290000 | 3.6 | 0.00069 | 190000 | Fab D5 (light chain CDR3 variant of A2-G8) (Fab, V domains shown, It carries FLAG and Strep tags) VH: not shown VL: QMTQSPSSLSASVGDRVTITCRASQGIRGYLGWYQQKPGKAPKLLIYSASSLQSGVPSRFSGSGSGTDFTLTISSLQPEDFATYYCASQGWMPYTFGQGTKVEIKR |
|  | 0.78 | 0.00024 | 85 | ≥ 6 | 0.17 | 1.3 | 0.00022 | 170000 | 2.6 | 0.00028 | 110000 | Fab F5L (Fab, V domains shown, Light chain CDR3 variant of Fab A2-G8; It carries FLAG and Strep tags) VH: not shown VL: QMTQSPSSLSASVGDRVTITCRASQGIRGYLGWYQQKPGKAPKLLIYSASSLQSGVPSRFSGSGSGTDFTLTISSLQPEDFATYYCSAHGFMPYTFGQGTKVEIKR |
|  | 1.46 | 0.0003 | 70 | ≥ 6 | 0.19 | 1.4 | 0.00027 | 190000 | 5.4 | 0.00073 | 130000 | Fab D6L (Fab, V domains shown, Light chain CDR3 variant of Fab A2-G8; It carries FLAG and Strep tags) VH: not shown VL: QMTQSPSSLSASVGDRVTITCRASQGIRGYLGWYQQKPGKAPKLLIYSASSLQSGVPSRFSGSGSGTDFTLTISSLQPEDFATYYCGEWLSMPYTFGQGTKVEIKR |
